Results taken from patent US20140303084A1 (Biogen, published 2014).
Bridge positions count the residues as written; N and C are the ends. Square brackets hold non-standard residues; d marks the D form. Primed or numbered codes have the meaning given here. Side chains are listed from the residue outwards. Ends that are not written are not given here. * marks the point of attachment. :N‑O‑CH2‑CO‑PEG27 = oxime linkage (=N-O-CH2-CO-) to a PEG27 spacer; Biotin = O=C1N[C@H]2[C@H](CS[C@H]2CCCCC(=O)*)N1; PEG2(3) = PEG2 spacer carrying biotin on Lys; Palmitoyl = CCCCCCCCCCCCCCCC(=O)*; NMeL = CN[C@@H](CC(C)C)C(=O)O; PEG16″ = not defined here; PEG2″ = not defined here; PEG16′ = PEG-16 spacer

B1: rRAAGKLTCLASYCWLFATGIA (peptide)
peptide: [dR]RAAGKLTCLASYCWLFATGIA
modifications: not fully specified (C-terminus); printed as rRAAGKLTCLASYCWLFATGIA; cysteine pairing not given here
B2: K-k-MeLeu-TCLASYCWLF (peptide)
peptide: K[dK][NMeL]TCLASYCWLF
modifications: not fully specified; printed as K-k-MeLeu-TCLASYCWLF; cysteine pairing not given here
B3: Palmitoyl-(PEG)27(PEG)27-KLTCLASYCWLF (peptide)
peptide: {Palmitoyl-(PEG)27-(PEG)27}-KLTCLASYCWLF
modifications: disulfide 4-9 (inferred); not fully specified (C-terminus); printed as Palmitoyl-(PEG)27(PEG)27-KLTCLASYCWLF
B4: k-MeLeu-TCLASYCQLF (peptide)
peptide: [dK][NMeL]TCLASYCQLF
modifications: not fully specified (C-terminus); printed as k-MeLeu-TCLASYCQLF; cysteine pairing not given here
B5: KK-k-MeLeu-TCLASYCWLF (peptide)
peptide: KK[dK][NMeL]TCLASYCWLF
modifications: not fully specified; printed as KK-k-MeLeu-TCLASYCWLF; cysteine pairing not given here
B6: (KLTCLASYCWLFG)2═N-O-(CH2)3-O-N═ (peptide)
peptide: KLTCLASYCWLFG
modifications: cysteine pairing not given here; also: dimer: two copies joined by ═N-O-(CH2)3-O-N═ (linker 1) at residue 13
B7: KKK-k-MeLeu-TCLASYCWLF (peptide)
peptide: KKK[dK][NMeL]TCLASYCWLF
modifications: not fully specified; printed as KKK-k-MeLeu-TCLASYCWLF; cysteine pairing not given here
B8: KLLKLLLKLLLKLLK-k-MeLeu-TCLASYCWLF (peptide)
peptide: KLLKLLLKLLLKLLK[dK][NMeL]TCLASYCWLF
modifications: not fully specified; printed as KLLKLLLKLLLKLLK-k-MeLeu-TCLASYCWLF; cysteine pairing not given here
B9: k-MeLeu-TCLASYCWLA (peptide)
peptide: [dK][NMeL]TCLASYCWLA
modifications: not fully specified (C-terminus); printed as k-MeLeu-TCLASYCWLA; cysteine pairing not given here
B10: H3N-KLTCLASYCWLFG═N-O-CH2-CO-PEG27-CNPRGD-(Y-OEt)-RC (peptide)
peptide: H-KLTCLASYCWLFG[:N‑O‑CH2‑CO‑PEG27]CNPRGDY(OEt)RC
modifications: numbers in words are those of the source; cysteine pairing not given here; also: oxime link =N-O-CH2-CO-PEG27 between G13 and C14, Y20 as Y-OEt

What follows are binders tested against human Factor IXa (human, UniProt P00740 47-191; P00740 227-461) (assay: cell-based or functional assay).

Compared with B1, RGSVHQPTCLGGYCGRLHSSWV is higher in “EC50 [µM], FXa generation assay” value: < 0.5 µM for the first, > 50 µM for the second.

B2 and RQLWNKLTCLASYCALIGLSGT cannot be ordered by “EC50 [µM], FXa generation assay” value: > 1 µM for the first, > 1 µM for the second.

Compared with KGAYQKLTCLASYCLLFLLTAQ, B3 is higher in “EC50 [µM], FXa generation assay” value: < 0.5 µM for the first, > 20 µM for the second.

B4 and HLGSPKLTCGASQCWLLNHEVS cannot be ordered by “EC50 [µM], FXa generation assay” value: > 1 µM for the first, > 50 µM for the second.

DAKVAKLRCLGSQCWLLQYAPG and QAKMLKLTCLASYCWLFWVTRS cannot be ordered by “EC50 [µM], FXa generation assay” value: < 0.5 µM for the first, < 0.5 µM for the second.

First: SRQSDKPTCLAISCSLLTSNVR
Second: VSGTGKLTCLASYCWLFQLGSF
The “EC50 [µM], FXa generation assay” value of the first is higher: > 50 µM for the first, < 0.5 µM for the second.

Going from VARASKVECLASYCQLFVGGEV to RGRSAKLTCLASYCWLFFGVIL, the “EC50 [µM], FXa generation assay” value falls from > 1 µM to < 0.5 µM.

RGRSAKLRCLASYCWLFFTVIL and RRAPGKLQCLASYCWLFATAIA cannot be ordered by “EC50 [µM], FXa generation assay” value: < 0.5 µM for the first, < 0.5 µM for the second.

[PEG16″]K([PEG2″-Biotin])[PEG16″][dR]RAPGKLTCLASYCWLFWTGIA (cysteine pairing not given here) [PEG16-Lys(PEG2-Biotin)-PEG16-rRAPGKLTCLASYCWLFWTGIA] and HGLADRLTCLSSDCWLQPFGTS cannot be ordered by “EC50 [µM], FXa generation assay” value: > 1 µM for the first, > 50 µM for the second.

First: RSTVSQMRCLASYCWLFPALVS
Second: HQQRRKLTCLAGYCWLFVLGPS (not fully specified; cysteine pairing not given here)
The “EC50 [µM], FXa generation assay” value of the first is lower: < 0.5 µM for the first, > 1 µM for the second.

R[dK][NMeL]TCLASYCWLF (cysteine pairing not given here) [R-k-MeLeu-TCLASYCWLF] and B5 cannot be ordered by “EC50 [µM], FXa generation assay” value: > 1 µM for the first, > 10 µM for the second.

B6 and RAAPGKLQCLASYCWLFWTGIA cannot be ordered by “EC50 [µM], FXa generation assay” value: < 0.5 µM for the first, < 0.5 µM for the second.

HDSLDQLTCLASVCQLASMGAR and QEQPAKLTCRGSYCWLFKRGDQ cannot be ordered by “EC50 [µM], FXa generation assay” value: > 1 µM for the first, > 50 µM for the second.

First: GDSGRKLSCLGSYCWLSVQFMA
Second: [dR]RAPGKLTCLASYCWLFWTGIA[PEG16′]K([PEG2(3)-Biotin])[PEG16′]K(Palmitoyl) (cysteine pairing not given here) [rRAPGKLTCLASYCWLFWTGIA-PEG16-Lys(PEG2-Biotin)-PEG16-Lys(palmitoyl)]
The “EC50 [µM], FXa generation assay” value of the first is lower: < 0.5 µM for the first, > 1 µM for the second.

First: RGRSAKLRCLASYCWLFFGVIL
Second: B7
The “EC50 [µM], FXa generation assay” value of the first is lower: < 0.5 µM for the first, > 20 µM for the second.

Going from GASGRRRTCVASYCLLFQSGLP to [dR]RAPGKLTCLASYCWLFWTGIA[PEG16″]K([PEG2″-Biotin])[PEG16″] (cysteine pairing not given here) [rRAPGKLTCLASYCWLFWTGIA-PEG16-Lys(PEG2-Biotin)-PEG16], the “EC50 [µM], FXa generation assay” value falls from > 25 µM to < 0.5 µM.

ARAPGKLQCLASYCWLFWTGIA and B8 cannot be ordered by “EC50 [µM], FXa generation assay” value: < 0.5 µM for the first, < 0.5 µM for the second.

Compared with NGGMQKPACLASQCWLFANPLP, VSGTGRLTCVASYCWMFQLGSF is lower in “EC50 [µM], FXa generation assay” value: > 1 µM for the first, < 0.5 µM for the second.

[dK][NMeL]TCLASYCWLF (not fully specified (residue 8); cysteine pairing not given here) [k-MeLeu-TCLAS-(Y-OMe)-CWLF] and RRAPAKLQCLASYCWLFWTGIA cannot be ordered by “EC50 [µM], FXa generation assay” value: < 0.5 µM for the first, < 0.5 µM for the second.

Compared with {Palmitoyl-(PEG)27}-KLTCLASYCWLF (cysteine pairing not given here) [Palmitoyl-(PEG)27-KLTCLASYCWLF], KRYVYRQMCLVSACWLLQLGYA is lower in “EC50 [µM], FXa generation assay” value: > 1 µM for the first, < 0.5 µM for the second.

RHSNHNLTCQASYCWLLPAGLQ and KKLTCLASYCWLF (not fully specified; D-Lys 1, D-Lys 2, MeLeu 3) [k-k-MeLeu-TCLASYCWLF] cannot be ordered by “EC50 [µM], FXa generation assay” value: > 1 µM for the first, > 2.5 µM for the second.

Compared with VSGTGRLTCVASYCWMFQLGIF, SKWEHQRGCLANNCWLFTLAPG is higher in “EC50 [µM], FXa generation assay” value: < 0.5 µM for the first, > 50 µM for the second.

First: RRAAGKLQCLASYCWLFWTGIA
Second: B9
The “EC50 [µM], FXa generation assay” value of the first is lower: < 0.5 µM for the first, > 1 µM for the second.

Going from FPIQHKLTCLSSDCWLFPSHSY to Ac-K[dK][NMeL]TCLASYCWLF (cysteine pairing not given here) [Ac-K-k-MeLeu-TCLASYCWLF], the “EC50 [µM], FXa generation assay” value falls from > 50 µM to < 0.5 µM.

With B10 the “EC50 [µM], FXa generation assay” value was > 50 µM.
